From the supplement of paper PMC9170038

Assays:
[1] = test system: MS2 coat protein; assay: apparent KD of MS2 coat protein, switch ON state; designed switch direction (-1 OFF switch, 1 ON switch): 1; higher = weaker reporter binding; details: FMN input: 0 or 200 uM; Eterna round: R93 (includes R88 designs)
Procedure, shortened: (§1)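 For every design, apparent KD is the median of normalised binding-curve fits from its clusters. The RNA switches were transcribed on-chip from Illumina sequencing clusters and titrated with SNAP-549-labelled MS2 coat protein (twofold steps, 0.7 or 1.5 nM to 3 µM; 0.8–1.5 h to 10–20 min per step). Titrations used 100 mM Tris-HCl pH 7.5, 80 mM KCl, 4 mM MgCl2, without or with constant ligand.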

[2] = test system: MS2 coat protein; assay: apparent KD of MS2 coat protein, switch OFF state (with FMN for OFF switches, without FMN for ON switches); designed switch direction (-1 OFF switch, 1 ON switch): 1; higher = weaker reporter binding; details: FMN input: 0 or 200 uM; Eterna round: R93 (includes R88 designs)
Procedure, shortened: as §1

| Sequence | apparent KD of MS2 coat protein [1] | apparent KD of MS2 coat protein [2] |
| --- | --- | --- |
| AAACCACAUGAGGAUCACCCAUGUAAGAUAUACAUAGGAUAUGCGAAAAGAAACAAAGAAGCAGAAGGGUGAAAAA [75%, Ex sub1, 14] | 0.172 µM | 0.0728 µM |
| AAACCACAUGAGGAUCACCCAUGUAGAAAUAUGGGAGGAUAUACGAAAACGAAAGUCAAAGUAGAAGGCCUAAAAG [saturn 2] | 0.0367 µM | 0.129 µM |
| AAACCACAUGAGGAUCACCCAUGUCAAGAGAGACUAGGAUAUCUGAAUUAAUUAAAUUAAGGAGAAGGAGUGAAAA [71%, Same state of confusion2, 3] | 0.0528 µM | 0.179 µM |
| AAACCACAUGAGGAUCACCCAUGUGUAAAAAAUACAGGAUAUGGAAACACGAAAGUGAAACCAGAAGGGUGAAAAA [77%, Mat - Mod of Eli, 30] | 0.019 µM | 0.0243 µM |
| AAACCACAUGAGGAUCACCCAUGUGUAAAAAAUACAGGAUAUGGAAACACGAAAGUGAAACCAGAAGGGUGGAAAA [77%, Mat - Mod of Eli, 29] | 0.0316 µM | 0.0283 µM |
| AAAGAAAAACUAGAGGAUAUCCAAGUGGUAACAUGAGGAUCACCCAUGUGAAGAAAGGAGCAUGAGGAGAAGGCUAGAAGAAAAA [JL Nando mod 25] | 0.0192 µM | 0.0823 µM |
| AAAGAAAAACUAGAGGAUAUCCGAGUGGUAACAUGAGGAUCACCCAUGUGAAGAAAGGAACAUAUGGAGAAGGCUAGAAGAAAAA [JL Nando Mod 4] | 0.0635 µM | 0.438 µM |
| AAAGAAAAACUAGAGGAUAUCUGAAUGAUAACAUGAGGAUCACCCAUGUGAAGAAAGGAAUAUGAGGAGAAGGCUAGAAGAAAAA [JL Nando mod 19] | 0.0339 µM | 0.0449 µM |
| AAAGAAAAACUAGAGGAUAUCUGAGUGGUAACAUGAGGAUCACCCAUGUGAAGAAAGGAACAUGAGGAGAAGGCUAGAAGAAAAA [JL Nando mod 13] | 0.0238 µM | 0.0442 µM |
| AAAGAAAAACUAGAGGAUAUUUGAGUGGUAACAUGAGGAUCACCCAUGUGAAGAAAAGAACAUGAGGAGAAGGCUAGAAGAAAAA [JL Nando mod 15] | 0.0231 µM | 0.0423 µM |
| AAAGAAAAACUAGAGGAUAUUUGAGUGGUAACAUGAGGAUCACCCAUGUGAAGAAAGGAGCAUGAGGAGAAGGCUAGAAGAAAAA [JL Nando mod 23] | 0.0215 µM | 0.0687 µM |
| AAAGACACAGUGCAGGAUAUGGUAAUAGUCACAUGAGGAUCACCCAUGUUCUUUUAUAAGAACGAUCAGAAGGGCGGUGAAAAAA [SameState2 Malc#12] | 0.111 µM | 0.295 µM |
| AAAUAAAAAAAAGAGGAUAUUCAUGUGAAAACAUGAGGAUCACCCAUGUAAAAAAAUAAAAAUAAAAAGAAGGAAAAAUAAAAAA [SS2: 83 No MS2] | 0.0236 µM | 0.0251 µM |
| AAAUAAAAAAGGGAGGAUAUUCAUGUGAAAACAUGAGGAUCACCCAUGUAAAAAAAUAAAAAUAAAAAGAAGGAAAAAUAAAAAA [SS2: 80 No MS2] | 0.00662 µM | 0.151 µM |
| AAAUAAAGGACUGAGGAUAUACCACAUGAAACAUGAGGAUCACCCAUGUUGAAAAACAAAGGGUGGUAGAAGGCAGUCCACAAAC [Same State 2.5c ( so lets mod hyphema)] | 0.0107 µM | 0.0141 µM |
| AAAUAAAGGACUGAGGAUAUACCACAUGAAACAUGAGGAUCACCCAUGUUGAAAAACAGAGGGUGGUAGAAGGUAGUCCACAAAC [Same State 2.5b ( so lets mod hyphema)] | 0.0215 µM | 0.0513 µM |
| AAAUAAAUGACUAAGGAUAUAUCAGAGAAAACAUGAGGAUCACCCAUGUAAUAAUAAAAAGGGUGAUAGAAGGUAGUCAACAAACA [Pariah 4 (MS2 Riboswitches - Same State 2)] | 0.026 µM | 0.154 µM |
| AAAUAAAUGACUAAGGAUAUUUCAGAGAAAACAUGAGGAUCACCCAUGUAAUAAUAAAAAGGGUGAGAGAAGGUAGUCAACAAAC [74%, More Paria 4] | 0.0138 µM | 0.0257 µM |
| AAAUAAAUGACUGAGGAUAUAUCGAAGAAGACAUGAGGAUCACCCAUGUAAUAAUAAAAAGGGUGGUAGAAGGUAGUCAACAAAC [Mod 9 of Pariah 4 by Hyphema in Round 1] | 0.331 µM | 0.376 µM |
| AAAUAAAUGACUGAGGAUAUAUCGAUGGGUACAUGAGGAUCACCCAUGUGUUAAUAAAAAGGGUGGUAGAAGGUAGUCAACAAAC [Mod 16 of Pariah 4 by Hyphema in Round 1] | 0.238 µM | 0.748 µM |
| AAAUAACAUGAGGAUCACCCAUGUUACAACUUUACAGGAUAUGUGGGUGAAAAUAGCAUGACAGAAGGGUACAGUA [SameState1 Malc#35] | 0.171 µM | 0.158 µM |

| Sequence | apparent KD of MS2 coat protein [1] | apparent KD of MS2 coat protein [2] |
| --- | --- | --- |
| AAAUAGUGCACUAAGGAUAUGUCGCAUGACACAUGAGGAUCACCCAUGUGGUAACACAGAGGGUGGCAGAAGGUAGUGUGCAAAC [Mod 2 of Pariah 6 (Round1) by Hyphema] | 0.0357 µM | 0.446 µM |
| AAAUAUAAAAACUAGGAUAUACUAAAAUAAACAUGAGGAUCACCCAUGUAAAAAAAAAAACUCAUGUAGAAGGAGUAAAUAUAAA [ss2 9th] | 0.0226 µM | 0.0138 µM |
| AAAUUACAUGAGGAUCACCCAUGUAGCGACGUUACAGGAUAUGUGGGUGAAAAUAGCAUGACAGAAGGGUACCGUA [SameState1 Malc#39] | 0.077 µM | 0.0608 µM |
| AAAUUACAUGAGGAUCACCCAUGUUUAAAAAAUAUAGGAUAUGUAAAAAAAAAAAAAAAAACAGAAGGGUAAAAAA [I 'NO' this state well] | 0.0251 µM | 0.0254 µM |
| AACAAUCUAUCUGAGGAUAUAUGUCGAAAGACAUGAGGAUCACCCAUGUGAAAACAUGAAAAAUCAUAGAAGGCAGAUAGAUUGA [SS2: 1138] | 0.049 µM | 0.393 µM |
| AACAGACAUGAGGAUCACCCAUGUAGAAUUAUGGGAGGAUAUACAAAGACGAGAGUCAGAGUAGAAGGCCUAGGAU [salish99-ss1-166] | 0.0228 µM | 0.0634 µM |
| AACAGACAUGAGGAUCACCCAUGUAGGAUUAUGGGAGGAUAUACAAAGACGAGAGUCAGAGUAGAAGGCCUAGGAA [salish99-ss1-147] | 0.0167 µM | 0.0579 µM |
| AACAUACAUGAGGAUCACCCAUGUUCCGGCAGGUCAGGAUAUAUAUCGAAAGAGUUAUAAAUAGAAGGGACAUAAA [JR_SS001_Sub009] | 0.0496 µM | 0.0607 µM |
| AACCAACAUGAGGAUCACCCAUGUAGAAAUAUGGGAGGAUAUACAAACACGAAAGUGAAAGUAGAAGGCCUAAAAG [77%, Mat - Mod of Eli, 6] | 0.0225 µM | 0.125 µM |
| AACUACAUUAUGAAGGAUAUCCACAUCUAGACAUGAGGAUCACCCAUGUAUACUUAGAUCAUACAGGAGAAGGUCAAGGGUGAUU [JR_SS002_Sub1208] | 0.172 µM | 0.131 µM |
| AAGAAACAUGAGGAUCACCCAUGUAAAAAUAUGGGAGGAUAUACAAGGACGUAAGUCAAGGUAGAAGGCCUAAGAA [Mat - Same State 1 - Meechl mod - D136] | 0.0202 µM | 0.0825 µM |
| AAGAAACAUGAGGAUCACCCAUGUAAAUUCGAGAGAGGAUAUCGUACAUGGAAGAUUCAACGAGAAGGCUCUAGAA [Same State 1.1 (Pariah 3, G boost at 31)] | 0.021 µM | 0.0796 µM |
| AAGAAACAUGAGGAUCACCCAUGUAAGAUAAACACAGGAUAUGCAAAAGAAACAAAGAAAGCAGAAGGGUGAAGAA [Mat - Same State 1 - Tesla mod - 49] | 0.0178 µM | 0.0484 µM |
| AAGAAACAUGAGGAUCACCCAUGUAAGAUAAACACAGGAUAUGCGAAAAGAAACAAAGAAGCAGAAGGGUGAAGAA [Ex5 sub 1] | 0.017 µM | 0.0357 µM |
| AAGAAACAUGAGGAUCACCCAUGUAAGAUAAACACAGGAUAUGCGAAAAGAAAGAAAGAAGCAGAAGGGUGAAGAA [Mat - Same State 1 - Tesla mod - 39] | 0.0175 µM | 0.0417 µM |
| AAGAAACAUGAGGAUCACCCAUGUAAGAUAAACACAGGAUAUGCGAAAAUAAACAAAGAAGCAGAAGGGUGAAGAA [Mat - Same State 1 - Tesla mod - 62] | 0.0135 µM | 0.0419 µM |
| AAGAAACAUGAGGAUCACCCAUGUAGAAAUAUGGGAGGAUAUACAAGGACGAGAGUCAAGGUAGAAGGCCUAAGAA [Mat - Same State 1 - Meechl mod - D134] | 0.0176 µM | 0.111 µM |
| AAGAAACAUGAGGAUCACCCAUGUGAGAACAUGGGAGGAUAUACGAAGACGAAAGUCGAAGUAGAAGGCCUAAAAG [Garnet 80] | 0.243 µM | 0.0249 µM |
| AAGAAACAUGAGGAUCACCCAUGUGAGAUAAACACAGGAUAUGCGAAAAUAAACAAAUAAGCAGAAGGGUGAAGAA [Mat - Same State 1 - Tesla mod - 68] | 0.0329 µM | 0.0748 µM |
| AAGAAACAUGAGGAUCACCCAUGUGAUAAUAUGGGAGGAUAUACAAGGACGUAAGUCAAGGUAGAAGGCCUAAGAA [Mat - Same State 1 - Meechl mod - D140] | 0.0305 µM | 0.0616 µM |
| AAGAAACAUGAGGAUCACCCAUGUGAUAAUAUGGGAGGAUAUACGAAGUCGAAAGUCGAAGUAGAAGGCCUAAGAA [Garnet 41] | 0.049 µM | 0.186 µM |
